This is an account of results in the supplement of paper PMC9112550, “Optimization of the antimicrobial peptide Bac7 by deep mutational scanning” (BMC Biology, 2022).
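Also: peptides expressed intracellularly from a pBAD plasmid library in pooled LB shake-flask culture, induced with 0.3% L-arabinose, DNA abundance read by NGS, three biological replicates, DESeq2 with apeglm shrinkage.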

The test system of the data set is Escherichia coli TOP10. Description: shrunken log2 fold change of peptide-encoding DNA abundance (4.5 h post-induction vs induction); higher = less antimicrobial activity (less host growth inhibition). To be noted: time post-induction: 4.5 h; library: site-saturation at positions 5, 18, 19, 20.
In the case of RRIRNRPPRLPRPRPRPNKAPRP, the “shrunken log2 fold change” value is -0.000622.
On to RRIRLRPPRLPRPRPRPMYDPRP, for which the “shrunken log2 fold change” value was -0.787.
Then RRIRTRPPRLPRPRPRPFVGPRP, with -0.035; and RRIRARPPRLPRPRPRPFMNPRP, with -0.0629.
Then RRIRWRPPRLPRPRPRPMWRPRP, with 0.328.
On to RRIRIRPPRLPRPRPRPDTDPRP, for which the “shrunken log2 fold change” value is -0.194.
Then RRIRNRPPRLPRPRPRPKPGPRP, with 0.235; and RRIRWRPPRLPRPRPRPTWAPRP, with 0.369; and RRIRLRPPRLPRPRPRPRDTPRP, with -0.0364.
Then RRIRRRPPRLPRPRPRPKRSPRP, with 0.11; and RRIRYRPPRLPRPRPRPLVEPRP, with -0.234.
Then RRIRQRPPRLPRPRPRPYSSPRP, with -0.751.
Take RRIRMRPPRLPRPRPRPTAYPRP: the “shrunken log2 fold change” value was 0.513.
Then RRIRFRPPRLPRPRPRPSDCPRP, with -0.476.
Then RRIRFRPPRLPRPRPRPLQIPRP, with -0.384.
Then RRIRHRPPRLPRPRPRPRNEPRP, with -0.588; and RRIRQRPPRLPRPRPRPVHVPRP, with -0.0167.
In the case of RRIRPRPPRLPRPRPRPLSVPRP, the “shrunken log2 fold change” value was -0.121.
Then RRIRDRPPRLPRPRPRPQGTPRP, with 0.165; and RRIRKRPPRLPRPRPRPNENPRP, with 0.304; and RRIRYRPPRLPRPRPRPIIPPRP, with -0.825.
Then RRIRSRPPRLPRPRPRPSGPPRP, with 0.0577; and RRIRIRPPRLPRPRPRPIRFPRP, with -1.35.
Then RRIRFRPPRLPRPRPRPLAWPRP, with 0.32; and RRIRPRPPRLPRPRPRPAWEPRP, with 0.216; and RRIRERPPRLPRPRPRPGEVPRP, with 0.0814.
As to RRIRTRPPRLPRPRPRPFIMPRP, the “shrunken log2 fold change” value was -0.339.
Then RRIRNRPPRLPRPRPRPEWIPRP, with -0.16.
Then RRIRMRPPRLPRPRPRPSYDPRP, with 0.26; and RRIRERPPRLPRPRPRPMVFPRP, with 0.0276.
Then RRIRARPPRLPRPRPRPQHYPRP, with -0.474; and RRIRDRPPRLPRPRPRPQAPPRP, with -0.0631.
For RRIRRRPPRLPRPRPRPLYDPRP, the “shrunken log2 fold change” value was -0.0854.
RRIRTRPPRLPRPRPRPMEEPRP: the “shrunken log2 fold change” value was -0.25.
Then RRIRNRPPRLPRPRPRPAMIPRP, with -0.254; and RRIRFRPPRLPRPRPRPRTWPRP, with 0.544.
Then RRIRGRPPRLPRPRPRPESFPRP, with 0.0921.
Then RRIRSRPPRLPRPRPRPGANPRP, with 0.0967; and RRIRPRPPRLPRPRPRPGWMPRP, with -0.0745; and RRIRSRPPRLPRPRPRPKQNPRP, with 0.0535.
Turning to RRIRRRPPRLPRPRPRPGQRPRP, the “shrunken log2 fold change” value stood at 0.386.
Then RRIRGRPPRLPRPRPRPSSKPRP, with 0.0383; and RRIRMRPPRLPRPRPRPPDGPRP, with 1.41.
Then RRIRWRPPRLPRPRPRPDAHPRP, with 0.0254.
Then RRIRPRPPRLPRPRPRPSLLPRP, with -0.205; and RRIRVRPPRLPRPRPRPEAPPRP, with 0.000205.
Take RRIRKRPPRLPRPRPRPGVKPRP: the “shrunken log2 fold change” value was found to be 0.0127.
Then RRIRTRPPRLPRPRPRPMCEPRP, with 0.0422.
Then RRIRHRPPRLPRPRPRPPYNPRP, with -0.642; and RRIRVRPPRLPRPRPRPPGCPRP, with 0.232; and RRIRMRPPRLPRPRPRPTEFPRP, with 0.0756.
Then RRIRARPPRLPRPRPRPMGRPRP, with 0.275; and RRIRDRPPRLPRPRPRPIQSPRP, with -0.0949; and RRIRMRPPRLPRPRPRPKESPRP, with 0.939.
For the sequence RRIRFRPPRLPRPRPRPGQFPRP, the “shrunken log2 fold change” value was -0.148.
Then RRIRRRPPRLPRPRPRPVLEPRP, with 0.599.
With RRIRCRPPRLPRPRPRPTSYPRP, the “shrunken log2 fold change” value was -0.119.
Then RRIRGRPPRLPRPRPRPESRPRP, with 0.831; and RRIRSRPPRLPRPRPRPHMSPRP, with -0.223; and RRIRERPPRLPRPRPRPMSKPRP, with -0.439.
Regarding RRIRCRPPRLPRPRPRPHCWPRP, the “shrunken log2 fold change” value was -0.0254.
Consider RRIRVRPPRLPRPRPRPNYDPRP, for which the “shrunken log2 fold change” value came to 0.273.
Then RRIRTRPPRLPRPRPRPPRRPRP, with 0.386.
